Assay results: US20170190788A1, “USES OF ANTI-HER3 ANTIBODIES FOR TREATING CANCER” (BULLDOG PHARMACEUTICALS, INC., priority 2014, published 2017)
“Also recorded” adds a separate entry of the source.

Tests used:
ErbB3 (HER3) = molecular target: T1, ErbB3 (HER3) (Homo sapiens (Human), UniProt P21860 20-1342); test: binding of fluorescent probe to HT29, A375, A2058 and WM115 cells; mean fluorescence intensity, total over non-specific (excess unlabelled probe)
T1 construct: They are human tumour lines, so human HER3 is meant; also called HER3 receptor
Description: The effects of trametinib and vemurafenib on cell-surface expressed ErbB3 were also monitored. HT29, A375, A2058 and WM115 cells were treated with 100 nM trametinib or 1 μM vemurafenib for 24 hours at 37° C. […] Specific binding was determined by calculating the mean fluorescent intensity ratio of total binding (labeled probe alone) divided by the non-specific binding (labeled probe with excess of unlabeled probe). Values should be reported as the binding ratio of drug-treated samples divided by the untreated sample.

[1] = test system: B-Raf mutated cell lines (H29, A375, A2058 and WM115); test: Cell proliferative assays in B-Raf mutated cell lines; type: cell-based; details: four B-Raf mutated cell lines
Description: To investigate whether NRG signaling attenuates the anti-proliferative effects of trametinib or vemurafenib, cells were exposed to the drugs in the presence or absence of NRG. In addition, 2C2-YTE was introduced in a separate set of samples. Cell proliferative assays were performed in all four B-Raf mutated cell lines (H29, A375, A2058 and WM115).

B1: 2C2-YTE anti-HER3 antibody (antibody, V domains shown)
VH: EVQLLESGGGLVQPGGSLRLSCAASGFTFSYYYMQWVRQAPGKGLEWVSYIGSSGGVTNYADSVKGRFTISRDNSKNTLYLQMNSLRAEDTAVYYCARVGLGDAFDIWGQGTMVTVSS
VL: QSVLTQPPSASGTPGQRVTISCSGSLSNIGLNYVSWYQQLPGTAPKLLISRNNQRPSGVPDRFSGSKSGTSASLAISGLRSEDEADYYCAAWDDSPPGEAFGGGTKLTVL
notes: In the phosphorylation and proliferation assays it was unlabelled; also called 2C2-YTE mutant antibody; anti-HER3 antibody (2C2-YTE); not shown: human lambda light chain constant region
binding result (ErbB3 (HER3)): binds

B2: NRG: neuregulin, HER3 ligand used to stimulate cells (protein)
chain: SHLVKCAEKEKTFCVNGGECFMVKDLSNPSRYLCKCPNEFTGDRCQNYVMASFYKHLGIEFMEAE
effect of NRG on anti-proliferative effects of trametinib or vemurafenib [1]: can robustly attenuate the effects of BRAF and MEK inhibitors; also recorded: attenuates the anti-proliferative effects of the BRAF and MEK inhibitors
